Measurements published in patent CN109627331A.
“And” between values parts separate entries of the source, which are not always exact repeats. Identical values can stand only once.

B1: 鼠源CPV基因工程抗体 (recombinant mouse anti-canine parvovirus antibody expressed in HEK-293 cells) (antibody, V domains shown)
VH: QVQLKQSGPGLVQPSQSLSITCTVSGFSLTSYGVHWVRHSPGKGLEWLGVIWSGGSTDYNAAFISRLSITKDNSKTQVFFKMNSLQANDTAIYYCARNSFYGSTPGSYAMDYWGQGTSVTVSS
VL: QIVLTQSPASLSMAIGEKVTIRCIASTDIDDDMNWYQQKPGKPPNLLISEGNTLRPGVPSRFSSSGYGTDFVFTIQNMLSEDVADYYCLQSDNLPLTFGAGTKLELK
B2: CPV单克隆抗体 (mouse anti-canine parvovirus monoclonal antibody from hybridoma supernatant) (antibody, V domains shown)
VH: B1 VH
VL: B1 VL

Tests used:
[1] = target: 犬细小病毒 (canine parvovirus, whole virus) (犬细小病毒 (canine parvovirus)); assay: cell-based or functional assay
[2] = target: 犬细小病毒VLPs (canine parvovirus virus-like particles) (犬细小病毒 (canine parvovirus)); assay: indirect ELISA, VLPs coated at 1μg/ml, hybridoma supernatant
[3] = target: 犬细小病毒VLPs (canine parvovirus virus-like particles) (犬细小病毒 (canine parvovirus)); assay: non-competitive indirect ELISA, CPV-VLPs coated at 1, 0.5, 0.25, 0.125 μg/ml; mean of 6 Ka values

| Binder | 中和效价 [1] | 血凝抑制效价 [1] | OD450 [2] [OD450] | Ka [3] [M⁻¹] |
| --- | --- | --- | --- | --- |
| B1 | 4 titre (1:x) and 8 titre (1:x) | 8 titre (1:x) |  |  |
| B2 |  |  | 1.07 | 1.02e+11 |
